Series [1] addresses T1, E53 (Erythrobacter longus, UniProt A0A074MDU6, I256L).
T1 construct: gene EH31_02760; full length, 314 residues; N-terminal His6-SUMO tag (pSMT3) removed with Ulp1; E. coli BL21(DE3); monomer
The experiment in a line: X-ray crystal structure, substrate soak. Type of series: binding. The conditions noted are these: pH 6.5 crystals; active site.

Series [2] addresses T2, E53 (Erythrobacter longus, UniProt A0A074MDU6, S285G).
T2 construct: gene EH31_02760; full length, 314 residues; N-terminal His6-SUMO tag (pSMT3) removed with Ulp1; E. coli BL21(DE3); monomer
The series is described as follows: X-ray crystal structure, substrate soak. Type of series: binding. The following applies: pH 6.5 crystals; active site.

Series [3] addresses T3, E53 (Erythrobacter longus, UniProt A0A074MDU6).
T3 construct: gene EH31_02760; full length, 314 residues; N-terminal His6-SUMO tag (pSMT3) removed with Ulp1; E. coli BL21(DE3); monomer
The experiment in a line: X-ray crystal structure, substrate soak. Type of series: binding. The following applies: pH 6.5 crystals; active site.

Substrate in the series “purified protein”: CCCC(=O)Oc1ccc([N+](=O)[O-])cc1
The experiment in a line: purified protein. The conditions noted are these: Tris-HCl pH 9.0 (also pH 7.0), 40 °C, 0.05-4.00 mM substrate. The format is biochemical, Erythrobacter longus.

Positions count from the first letter of the chain named. Names may count otherwise.

The record followed here is publication PMC8767022, “Mechanism and Structural Insights Into a Novel Esterase, E53, Isolated From Erythrobacter longus” (Frontiers in Microbiology, 2022).

T2 sequence (A0A074MDU6 entry or part of it S285G): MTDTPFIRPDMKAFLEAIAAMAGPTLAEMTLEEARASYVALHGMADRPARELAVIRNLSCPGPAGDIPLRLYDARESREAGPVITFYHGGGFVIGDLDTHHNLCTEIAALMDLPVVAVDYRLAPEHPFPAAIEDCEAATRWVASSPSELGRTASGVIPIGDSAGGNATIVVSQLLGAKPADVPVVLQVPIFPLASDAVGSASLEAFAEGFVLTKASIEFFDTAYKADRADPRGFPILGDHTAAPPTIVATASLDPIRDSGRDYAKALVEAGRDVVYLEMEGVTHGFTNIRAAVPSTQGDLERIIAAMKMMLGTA
T3 sequence (A0A074MDU6 entry or part of it): as the sequence (A0A074MDU6 entry or part of it S285G) above, with G285S counted along it
T1 sequence (A0A074MDU6 entry or part of it I256L): as the sequence (A0A074MDU6 entry or part of it S285G) above, with I256L, G285S counted along it

For the molecule `CCCCCC(=O)Oc1ccc([N+](=O)[O-])cc1` [C6, p-NP hexanoate], the “X-ray crystal structure, substrate soak” value at E53 [1] was “observed in the crystal structures of E53, I256L, and S285G”; on E53 [2] it was “observed in the crystal structures of E53, I256L, and S285G”; at E53 [3], “observed in the crystal structures of E53, I256L, and S285G”.

B1: E53 (Erythrobacter longus; F191Y) (protein)
chain: MTDTPFIRPDMKAFLEAIAAMAGPTLAEMTLEEARASYVALHGMADRPARELAVIRNLSCPGPAGDIPLRLYDARESREAGPVITFYHGGGFVIGDLDTHHNLCTEIAALMDLPVVAVDYRLAPEHPFPAAIEDCEAATRWVASSPSELGRTASGVIPIGDSAGGNATIVVSQLLGAKPADVPVVLQVPIYPLASDAVGSASLEAFAEGFVLTKASIEFFDTAYKADRADPRGFPILGDHTAAPPTIVATASLDPIRDSGRDYAKALVEAGRDVVYLEMEGVTHSFTNIRAAVPSTQGDLERIIAAMKMMLGTA
notes: full length, 314 residues; N-terminal His6-SUMO tag (pSMT3) removed with Ulp1; E. coli BL21(DE3); monomer
Broadly, the Km is the substrate concentration at which the rate is half of its maximum. As to B1, in “purified protein”, the Michaelis-Menten constant (Km) was 210 ± 20 µM.

B2: E53 (Erythrobacter longus) (protein)
chain: B1 chain with Y191F
notes: as for B1
B2: in “purified protein”, the Michaelis-Menten constant (Km) came to 330 ± 30 µM.

B3: E53 (Erythrobacter longus; A167L) (protein)
chain: B1 chain with A167L, Y191F
notes: as for B1
Turning to B3, the Km in the series “purified protein” worked out at 150 ± 10 µM.

B4: E53 (Erythrobacter longus; V211A) (protein)
chain: B1 chain with Y191F, V211A
notes: as for B1
Turning to B4, the Michaelis constant (Km) in the series “purified protein” amounted to 520 ± 30 µM.

B5: E53 (Erythrobacter longus; S216A) (protein)
chain: B1 chain with Y191F, S216A
notes: as for B1
With B5, the Km in “purified protein” was 420 ± 30 µM.

B6: E53 (Erythrobacter longus; I256L) (protein)
chain: B1 chain with Y191F, I256L
notes: as for B1
In the case of B6, the Km in “purified protein” is 230 ± 20 µM.

B7: E53 (Erythrobacter longus; N166A) (protein)
chain: B1 chain with N166A, Y191F
notes: as for B1
As to B7, the Km in the series “purified protein” worked out at 460 ± 40 µM.
